{"source": "paper PMC13426413", "about": "(Science Advances, 2026)", "binders": {"B1": {"name": "Tom70:Orf9b_(Helix) complex (complex)", "chain 1": "MNSLDRAQAAKNKGNKYFKAGKYEQAIQCYTEAISLCPTEKNVDLSTFYQNRAAAFEQLQKWKEVAQDCTKAVELNPKYVKALFRRAKAHEKLDNKKECLEDVTAVCILEGFQNQQSMLLADKVLKLLGKEKAKEKYKNREPLMPSPQFIKSYFSSFTDDIISQPMLKGEKSDEDKDKEGEALEVKENSGYLKAKQYMEEENYDKIISECSKEIDAEGKYMAEALLLRATFYLLIGNANAAKPDLDKVISLKEANVKLRANALIKRGSMYMQQQQPLLSTQDFNMAADIDPQNADVYHHRGQLKILLDQVEEAVADFDECIRLRPESALAQAQKCFALYRQAYTGNNSSQIQAAMKGFEEVIKKFPRCAEGYALYAQALTDQQQFGKADEMYDKCIDLEPDNATTYVHKGLLQLQWKQDLDRGLELISKAIEIDNKCDFAYETMGTIEVQRGNMEKAIDMFNKAINLAKSEMEMAHLYSLCDAAHAQTEVAKKYGLKPPTL", "chain 2": "IILRLGSPLSLNMARKTLNSLEDKAFQLTPIAVQY"}}, "molecular_target": "human Hsp90α (residues 1–732) (human, UniProt P07900 1-732)", "experiment": "ITC"}
{"binder": "B1", "values": [{"measurement": "binding result", "result": "binds"}]}
